Experimental data from the supplement of paper PMC9112550, “Optimization of the antimicrobial peptide Bac7 by deep mutational scanning” (BMC Biology, 2022).
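Also: peptides expressed intracellularly from a pBAD plasmid library in pooled LB shake-flask culture, induced with 0.3% L-arabinose, DNA abundance read by NGS, three biological replicates, DESeq2 with apeglm shrinkage.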

The sequences below were run on Escherichia coli TOP10 (assay: shrunken log2 fold change of peptide-encoding DNA abundance (4.5 h post-induction vs induction); higher = less antimicrobial activity (less host growth inhibition)). Details: time post-induction: 4.5 h; library: site-saturation at positions 5, 18, 19, 20.
With RRIRWRPPRLPRPRPRPVTFPRP the “shrunken log2 fold change” value was -0.186. In the case of RRIRWRPPRLPRPRPRPVTIPRP, the “shrunken log2 fold change” value is reported as -0.269. In the case of RRIRWRPPRLPRPRPRPVTKPRP, the “shrunken log2 fold change” value is reported as 0.235. For RRIRWRPPRLPRPRPRPVVRPRP, the “shrunken log2 fold change” value was 0.405. In the case of RRIRWRPPRLPRPRPRPVVTPRP, the “shrunken log2 fold change” value is reported as 0.338. In the case of RRIRWRPPRLPRPRPRPWAHPRP, the “shrunken log2 fold change” value is reported as 0.0966. RRIRWRPPRLPRPRPRPWDMPRP was tested, and the “shrunken log2 fold change” value was -0.00946. With RRIRWRPPRLPRPRPRPWDQPRP the “shrunken log2 fold change” value was 0.00408. RRIRWRPPRLPRPRPRPWDVPRP was tested, and the “shrunken log2 fold change” value was 0.0249. In the case of RRIRWRPPRLPRPRPRPWEPPRP, the “shrunken log2 fold change” value is reported as -0.0178. With RRIRWRPPRLPRPRPRPWFRPRP the “shrunken log2 fold change” value was -0.251. RRIRWRPPRLPRPRPRPWGAPRP was tested, and the “shrunken log2 fold change” value was 0.297. For RRIRWRPPRLPRPRPRPWGEPRP, the “shrunken log2 fold change” value was 0.039. RRIRWRPPRLPRPRPRPWHEPRP was tested, and the “shrunken log2 fold change” value was 0.356. In the case of RRIRWRPPRLPRPRPRPWHTPRP, the “shrunken log2 fold change” value is reported as 0.103. RRIRWRPPRLPRPRPRPWIIPRP was tested, and the “shrunken log2 fold change” value was -0.267. With RRIRWRPPRLPRPRPRPWIKPRP the “shrunken log2 fold change” value was -0.203. For RRIRWRPPRLPRPRPRPWMRPRP, the “shrunken log2 fold change” value was 0.526. RRIRWRPPRLPRPRPRPWQTPRP was tested, and the “shrunken log2 fold change” value was -0.0178. RRIRWRPPRLPRPRPRPWRMPRP was tested, and the “shrunken log2 fold change” value was -0.182. For RRIRWRPPRLPRPRPRPWSAPRP, the “shrunken log2 fold change” value was 0.228. In the case of RRIRWRPPRLPRPRPRPWTHPRP, the “shrunken log2 fold change” value is reported as -0.11. For RRIRWRPPRLPRPRPRPWWCPRP, the “shrunken log2 fold change” value was -0.0237. With RRIRWRPPRLPRPRPRPWWIPRP the “shrunken log2 fold change” value was 0.109. For RRIRWRPPRLPRPRPRPWWVPRP, the “shrunken log2 fold change” value was 0.13. RRIRWRPPRLPRPRPRPWYMPRP was tested, and the “shrunken log2 fold change” value was -0.885. For RRIRWRPPRLPRPRPRPYANPRP, the “shrunken log2 fold change” value was -0.399. For RRIRWRPPRLPRPRPRPYATPRP, the “shrunken log2 fold change” value was 0.289. With RRIRWRPPRLPRPRPRPYDCPRP the “shrunken log2 fold change” value was 0.00333. For RRIRWRPPRLPRPRPRPYDLPRP, the “shrunken log2 fold change” value was -0.021. For RRIRWRPPRLPRPRPRPYDPPRP, the “shrunken log2 fold change” value was -0.126. With RRIRWRPPRLPRPRPRPYDTPRP the “shrunken log2 fold change” value was -0.495. In the case of RRIRWRPPRLPRPRPRPYEMPRP, the “shrunken log2 fold change” value is reported as -0.893. For RRIRWRPPRLPRPRPRPYFIPRP, the “shrunken log2 fold change” value was -0.647. For RRIRWRPPRLPRPRPRPYFKPRP, the “shrunken log2 fold change” value was -0.839. RRIRWRPPRLPRPRPRPYFSPRP was tested, and the “shrunken log2 fold change” value was -0.722. With RRIRWRPPRLPRPRPRPYGQPRP the “shrunken log2 fold change” value was 0.051. RRIRWRPPRLPRPRPRPYIAPRP was tested, and the “shrunken log2 fold change” value was -0.825. For RRIRWRPPRLPRPRPRPYINPRP, the “shrunken log2 fold change” value was -0.536. In the case of RRIRWRPPRLPRPRPRPYMFPRP, the “shrunken log2 fold change” value is reported as -0.194. With RRIRWRPPRLPRPRPRPYPKPRP the “shrunken log2 fold change” value was 0.11. In the case of RRIRWRPPRLPRPRPRPYREPRP, the “shrunken log2 fold change” value is reported as -0.773. In the case of RRIRWRPPRLPRPRPRPYSVPRP, the “shrunken log2 fold change” value is reported as -0.55. RRIRWRPPRLPRPRPRPYTQPRP was tested, and the “shrunken log2 fold change” value was 0.167. In the case of RRIRWRPPRLPRPRPRPYWCPRP, the “shrunken log2 fold change” value is reported as -0.704. With RRIRWRPPRLPRPRPRPYYRPRP the “shrunken log2 fold change” value was -0.0707. With RRIRYRPPRLPRPRPRPADTPRP the “shrunken log2 fold change” value was -0.00151. With RRIRYRPPRLPRPRPRPADWPRP the “shrunken log2 fold change” value was 0.0899. With RRIRYRPPRLPRPRPRPAENPRP the “shrunken log2 fold change” value was -0.317. In the case of RRIRYRPPRLPRPRPRPAFFPRP, the “shrunken log2 fold change” value is reported as -0.405. For RRIRYRPPRLPRPRPRPAFIPRP, the “shrunken log2 fold change” value was -0.24. With RRIRYRPPRLPRPRPRPAGHPRP the “shrunken log2 fold change” value was -0.0387. RRIRYRPPRLPRPRPRPAHAPRP was tested, and the “shrunken log2 fold change” value was 0.154. RRIRYRPPRLPRPRPRPAHLPRP was tested, and the “shrunken log2 fold change” value was -0.0584. For RRIRYRPPRLPRPRPRPAIPPRP, the “shrunken log2 fold change” value was -0.66. For RRIRYRPPRLPRPRPRPAIQPRP, the “shrunken log2 fold change” value was -0.316. For RRIRYRPPRLPRPRPRPAKGPRP, the “shrunken log2 fold change” value was -0.183. With RRIRYRPPRLPRPRPRPAKNPRP the “shrunken log2 fold change” value was -0.508. RRIRYRPPRLPRPRPRPAKTPRP was tested, and the “shrunken log2 fold change” value was -0.00829. In the case of RRIRYRPPRLPRPRPRPAKVPRP, the “shrunken log2 fold change” value is reported as 0.00738. For RRIRYRPPRLPRPRPRPALCPRP, the “shrunken log2 fold change” value was -0.0404. For RRIRYRPPRLPRPRPRPAMEPRP, the “shrunken log2 fold change” value was 0.0738. With RRIRYRPPRLPRPRPRPANMPRP the “shrunken log2 fold change” value was -0.683. In the case of RRIRYRPPRLPRPRPRPAPRPRP, the “shrunken log2 fold change” value is reported as 0.57. For RRIRYRPPRLPRPRPRPAQGPRP, the “shrunken log2 fold change” value was -0.0469. For RRIRYRPPRLPRPRPRPAQIPRP, the “shrunken log2 fold change” value was -0.347. With RRIRYRPPRLPRPRPRPAQLPRP the “shrunken log2 fold change” value was -0.392. RRIRYRPPRLPRPRPRPAQMPRP was tested, and the “shrunken log2 fold change” value was 0.0755. RRIRYRPPRLPRPRPRPAQTPRP was tested, and the “shrunken log2 fold change” value was 0.0654. With RRIRYRPPRLPRPRPRPARAPRP the “shrunken log2 fold change” value was 0.524. With RRIRYRPPRLPRPRPRPARLPRP the “shrunken log2 fold change” value was -0.0429. With RRIRYRPPRLPRPRPRPARPPRP the “shrunken log2 fold change” value was 0.943. In the case of RRIRYRPPRLPRPRPRPARQPRP, the “shrunken log2 fold change” value is reported as 0.279. With RRIRYRPPRLPRPRPRPARRPRP the “shrunken log2 fold change” value was 0.234. RRIRYRPPRLPRPRPRPARYPRP was tested, and the “shrunken log2 fold change” value was -0.000578. For RRIRYRPPRLPRPRPRPATNPRP, the “shrunken log2 fold change” value was -0.387. RRIRYRPPRLPRPRPRPATRPRP was tested, and the “shrunken log2 fold change” value was 0.098. With RRIRYRPPRLPRPRPRPAVDPRP the “shrunken log2 fold change” value was -0.0338. RRIRYRPPRLPRPRPRPAVQPRP was tested, and the “shrunken log2 fold change” value was -0.505. In the case of RRIRYRPPRLPRPRPRPAWPPRP, the “shrunken log2 fold change” value is reported as 0.363. RRIRYRPPRLPRPRPRPAYTPRP was tested, and the “shrunken log2 fold change” value was -0.222. RRIRYRPPRLPRPRPRPCAIPRP was tested, and the “shrunken log2 fold change” value was -0.0633. For RRIRYRPPRLPRPRPRPCCCPRP, the “shrunken log2 fold change” value was -0.211. In the case of RRIRYRPPRLPRPRPRPCDLPRP, the “shrunken log2 fold change” value is reported as -0.618. RRIRYRPPRLPRPRPRPCEAPRP was tested, and the “shrunken log2 fold change” value was -0.123. In the case of RRIRYRPPRLPRPRPRPCFNPRP, the “shrunken log2 fold change” value is reported as -0.262. For RRIRYRPPRLPRPRPRPCGAPRP, the “shrunken log2 fold change” value was -0.324. With RRIRYRPPRLPRPRPRPCGKPRP the “shrunken log2 fold change” value was -0.0542. For RRIRYRPPRLPRPRPRPCHIPRP, the “shrunken log2 fold change” value was -0.0462. With RRIRYRPPRLPRPRPRPCHKPRP the “shrunken log2 fold change” value was -0.821. With RRIRYRPPRLPRPRPRPCHMPRP the “shrunken log2 fold change” value was -0.218. RRIRYRPPRLPRPRPRPCICPRP was tested, and the “shrunken log2 fold change” value was -0.0423. For RRIRYRPPRLPRPRPRPCIQPRP, the “shrunken log2 fold change” value was -0.172. In the case of RRIRYRPPRLPRPRPRPCKAPRP, the “shrunken log2 fold change” value is reported as -0.073. For RRIRYRPPRLPRPRPRPCKVPRP, the “shrunken log2 fold change” value was -0.422. For RRIRYRPPRLPRPRPRPCMVPRP, the “shrunken log2 fold change” value was -0.251. With RRIRYRPPRLPRPRPRPCPNPRP the “shrunken log2 fold change” value was 0.626. For RRIRYRPPRLPRPRPRPCRHPRP, the “shrunken log2 fold change” value was -0.394. RRIRYRPPRLPRPRPRPCRLPRP was tested, and the “shrunken log2 fold change” value was 0.0249. With RRIRYRPPRLPRPRPRPCRYPRP the “shrunken log2 fold change” value was -0.212. In the case of RRIRYRPPRLPRPRPRPCSMPRP, the “shrunken log2 fold change” value is reported as -0.0147. With RRIRYRPPRLPRPRPRPCVKPRP the “shrunken log2 fold change” value was -0.0312. In the case of RRIRYRPPRLPRPRPRPCYEPRP, the “shrunken log2 fold change” value is reported as -0.246. In the case of RRIRYRPPRLPRPRPRPDAAPRP, the “shrunken log2 fold change” value is reported as 0.294. In the case of RRIRYRPPRLPRPRPRPDCTPRP, the “shrunken log2 fold change” value is reported as -0.268. RRIRYRPPRLPRPRPRPDDYPRP was tested, and the “shrunken log2 fold change” value was 0.0219. RRIRYRPPRLPRPRPRPDEFPRP was tested, and the “shrunken log2 fold change” value was 0.0196. RRIRYRPPRLPRPRPRPDFDPRP was tested, and the “shrunken log2 fold change” value was -0.0161. RRIRYRPPRLPRPRPRPDFGPRP was tested, and the “shrunken log2 fold change” value was -0.251.
